Our source for the IC50 values is the Immune Epitope Database (IEDB).

Test in all cases: IEDB peptide-MHC binding, cellular MHC/competitive/fluorescence; ≥ and ≤ were set here for values at or beyond the usual limits of such assays
Test [1] has as its target HLA-A*02:01.
For test [2], the target named is HLA-A*02:02.
Test [3] concerns the target HLA-A*02:03.
For test [4], the target named is HLA-A*02:06.
For test [5], the target named is HLA-A*68:02.
[6] abbreviates: source organism: Vaccinia virus WR.
Where [7] appears, read: source organism: Influenza A virus.
Where [8] appears, read: source organism: Mammarenavirus whitewaterense.

Take ITGNKVKTEL: the 50% inhibitory concentration (IC50) in test [1] (setting [6]), in test [2] (setting [6]), in test [3] (setting [6]), in test [4] (setting [6]) and in test [5] (setting [6]) was at least 70 µM in each case.

Turning to QTRSKAGLLV, the IC50 (usually the concentration that gives 50% inhibition) in test [1] (setting [7]) is at least 70 µM; in test [2] (setting [7]), at least 70 µM; in test [3] (setting [7]), 22 µM; in test [4] (setting [7]), at least 70 µM; in test [5] (setting [7]), 50.9 µM.

Regarding VATTHSWI, the IC50 in test [1] (setting [7]) was at least 70 µM; in test [2] (setting [7]) it was at least 70 µM; in test [3] (setting [7]), 62.3 µM; in test [4] (setting [7]) it was at least 70 µM; in test [5] (setting [7]), 56.2 µM.

As to PTDMLKLFT, the IC50 in test [1] (setting [6]) was at least 70 µM; in test [2] (setting [6]) it was 29.1 µM; in test [3] (setting [6]) it was 47 µM; in test [4] (setting [6]) it was 69.8 µM; in test [5] (setting [6]), at least 70 µM.

On to PLSPDTCLLA, for which the half-inhibitory concentration (IC50) worked out at 6.97 µM in test [1] (setting [6]); 11.2 µM in test [2] (setting [6]); 9.31 µM in test [3] (setting [6]); 19.9 µM in test [4] (setting [6]); 15.2 µM in test [5] (setting [6]).

As for VVKDKIKLPT, the IC50 in test [1] (setting [6]) is 40.2 µM; in test [2] (setting [6]) it was 37.3 µM; in test [3] (setting [6]), 8.6 µM; in test [4] (setting [6]), 29.1 µM; in test [5] (setting [6]), 42.7 µM.

In the case of LLTHGADPNA, the IC50 is 11.2 µM in test [1] (setting [6]); 9.61 µM in test [2] (setting [6]); 7.51 µM in test [3] (setting [6]); 15.7 µM in test [4] (setting [6]); at least 70 µM in test [5] (setting [6]).

Consider VASDVCKKNL, for which the half-inhibitory concentration (IC50) was at least 70 µM in test [1] (setting [6]); 50.9 µM in test [2] (setting [6]); at least 70 µM in test [3] (setting [6]); at least 70 µM in test [4] (setting [6]); 39.5 µM in test [5] (setting [6]).

Turning to LTDVEKRIL, the IC50 in test [1] (setting [6]) was 27 µM; in test [2] (setting [6]) it was 27.4 µM; in test [3] (setting [6]) it was 28.5 µM; in test [4] (setting [6]), at least 70 µM; in test [5] (setting [6]) it was at least 70 µM.

For the sequence PTRTWKVLSI, the IC50 is at least 70 µM in test [1] (setting [6]); 41.9 µM in test [2] (setting [6]); 15.1 µM in test [3] (setting [6]); at least 70 µM in test [4] (setting [6]); 42 µM in test [5] (setting [6]).

In the case of VIPFDDIVRT, the IC50 was 24.4 µM in test [1] (setting [6]); 62.8 µM in test [2] (setting [6]); 50.3 µM in test [3] (setting [6]); 18.2 µM in test [4] (setting [6]); 42.2 µM in test [5] (setting [6]).

SITPNNLNKI: the IC50 in test [1] (setting [6]) was at least 70 µM; in test [2] (setting [6]), 14.9 µM; in test [3] (setting [6]), at least 70 µM; in test [4] (setting [6]), at least 70 µM; in test [5] (setting [6]), at least 70 µM.

As for ITETIPIGM, the IC50 in test [1] (setting [6]) was at least 70 µM; in test [2] (setting [6]), 12.4 µM; in test [3] (setting [6]), 42.8 µM; in test [4] (setting [6]), 7.69 µM; in test [5] (setting [6]), 6.13 µM.

PAMSTYSDI: the IC50 was 16.1 µM in test [1] (setting [6]); 18.3 µM in test [2] (setting [6]); 20.6 µM in test [3] (setting [6]); at least 70 µM in test [4] (setting [6]); 69.8 µM in test [5] (setting [6]).

Regarding PANINDKQIM, the IC50 in test [1] (setting [6]) was 32.3 µM; in test [2] (setting [6]), 49.5 µM; in test [3] (setting [6]) it was 43.1 µM; in test [4] (setting [6]), 10.9 µM; in test [5] (setting [6]) it was at least 70 µM.

Turning to TVLGVSIL, the IC50 in test [1] (setting [7]) was 6.79 µM; in test [2] (setting [7]), 23.9 µM; in test [3] (setting [7]) it was 14.2 µM; in test [4] (setting [7]) it was 5.69 µM; in test [5] (setting [7]), 15.8 µM.

On to GTKGKLYIAL, for which the IC50 came to 16.6 µM in test [1] (setting [6]); 9.07 µM in test [2] (setting [6]); 7.84 µM in test [3] (setting [6]); 37.4 µM in test [4] (setting [6]); 7.51 µM in test [5] (setting [6]).

Turning to CVRLNNPVIL, the IC50 in test [1] (setting [6]) is 13.4 µM; in test [2] (setting [6]) it was 8.56 µM; in test [3] (setting [6]), 5.4 µM; in test [4] (setting [6]), 45.1 µM; in test [5] (setting [6]), at least 70 µM.

For YVEHDPRLVA, the IC50 in test [1] (setting [6]) was determined as 57.5 µM; in test [2] (setting [6]) it was 18.6 µM; in test [3] (setting [6]), 16.2 µM; in test [4] (setting [6]), 11.9 µM; in test [5] (setting [6]), 31.1 µM.

As to YCHGILLKDV, the IC50 in test [1] (setting [8]) is 11.4 µM; in test [2] (setting [8]), at least 70 µM; in test [3] (setting [8]), 13 µM; in test [4] (setting [8]) it was 15 µM; in test [5] (setting [8]) it was 57.6 µM.

As for SAEDNYLAKL, the IC50 in test [1] (setting [6]), in test [2] (setting [6]), in test [3] (setting [6]), in test [4] (setting [6]) and in test [5] (setting [6]) was at least 70 µM in each case.

TVIKNNMI: the IC50 was at least 70 µM in test [1] (setting [7]); 36 µM in test [2] (setting [7]); at least 70 µM in test [3] (setting [7]); 67 µM in test [4] (setting [7]); at least 70 µM in test [5] (setting [7]).

In the case of AIKQYGDIDL, the IC50 in test [1] (setting [6]) was 45.8 µM; in test [2] (setting [6]), 23.4 µM; in test [3] (setting [6]), 46.4 µM; in test [4] (setting [6]), at least 70 µM; in test [5] (setting [6]), 38.7 µM.
